Data reported in publication PMC11577422.
Like-named read-outs stand apart in the source and are kept apart here.

Substrate: Cc1ccco1
Assay type: in vitro ADME, human

B1: CYP 2E1 (Homo sapiens) (protein)
chain: MSALGVTVALLVWAAFLLLVSMWRQVHSSWNLPPGPFPLPIIGNLFQLELKNIPKSFTRLAQRFGPVFTLYVGSQRMVVMHGYKAVKEALLDYKDEFSGRGDLPAFHAHRDRGIIFNNGPTWKDIRRFSLTTLRNYGMGKQGNESRIQREAHFLLEALRKTQGQPFDPTFLIGCAPCNVIADILFRKHFDYNDEKFLRLMYLFNENFHLLSTPWLQLYNNFPSFLHYLPGSHRKVIKNVAEVKEYVSERVKEHHQSLDPNCPRDLTDCLLVEMEKEKHSAERLYTMDGITVTVADLFFAGTETTSTTLRYGLLILMKYPEIEEKLHEEIDRVIGPSRIPAIKDRQEMPYMDAVVHEIQRFITLVPSNLPHEATRDTIFRGYLIPKGTVVVPTLDSVLYDNQEFPDPEKFKPEHFLNENGKFKYSDYFKPFSTGKRVCAGEGLARMELFLLLCAILQHFNLKPLVDPKDIDLSPIHIGFGCIPPRYKLCVIPRS
Question: With B1 as the protein, how does the Km (other: CYP 2E1; I) high substrate concentrations) read?
Answer: I) 1966.76; II) 23.29 μM

Question: And the Km (other: CYP 2E1; II) low substrate concentrations)?
Answer: 23.3 µM
